Measured values: PMC5703266

Biological target: recombinant soluble tissue factor sTF (1–219) (UniProt P13726)
Chain of UniProt P13726 (P13726 33-251): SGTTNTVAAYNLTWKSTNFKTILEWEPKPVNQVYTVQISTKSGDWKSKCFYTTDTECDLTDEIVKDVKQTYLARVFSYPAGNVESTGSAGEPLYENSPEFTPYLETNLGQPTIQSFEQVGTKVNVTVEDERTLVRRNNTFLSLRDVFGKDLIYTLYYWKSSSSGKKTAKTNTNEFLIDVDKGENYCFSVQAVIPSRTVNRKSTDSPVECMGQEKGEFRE

activation of FX in solution, kcat/KM: 663 M⁻¹ s⁻¹
Substance: coagulation factor VIIa (FVIIa) (enzyme)
